The text below walks through data of US20240376151A1 (FOG PHARMACEUTICALS, published 2024).

Bridge positions count the residues as written; N and C are the ends.

In assay [1] the target is T1, beta-catenin Armadillo domain, residues 134-665 (human, UniProt P35222 134-665, biotinylated through the N-terminal yBBr tag for SPR; tag cleaved off for crystallography).
T1 construct: also called β-catenin; CTNNB1
T1 sequence: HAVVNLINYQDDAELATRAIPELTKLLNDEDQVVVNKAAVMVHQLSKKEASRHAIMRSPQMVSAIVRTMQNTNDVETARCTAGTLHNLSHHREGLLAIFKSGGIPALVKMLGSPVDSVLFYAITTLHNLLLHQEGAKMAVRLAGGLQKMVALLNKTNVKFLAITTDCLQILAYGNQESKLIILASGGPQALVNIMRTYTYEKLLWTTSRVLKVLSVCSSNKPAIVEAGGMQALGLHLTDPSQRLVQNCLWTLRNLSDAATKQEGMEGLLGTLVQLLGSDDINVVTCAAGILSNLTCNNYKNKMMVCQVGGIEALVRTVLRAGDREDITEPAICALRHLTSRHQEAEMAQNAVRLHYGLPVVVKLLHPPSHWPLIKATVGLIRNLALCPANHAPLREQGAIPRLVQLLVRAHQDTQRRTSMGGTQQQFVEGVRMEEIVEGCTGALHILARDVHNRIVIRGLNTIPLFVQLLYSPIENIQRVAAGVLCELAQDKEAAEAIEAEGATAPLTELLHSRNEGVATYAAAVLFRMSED
The experiment in a line: SPR, alanine-scanning table. In general terms: In SPR one partner is held on a chip, and binding of the other changes the refractive index at the surface.

Assay [2] has as its target CDK2:Cyclin E1 (CCNE1) complex (UniProt P24864 81-363). Put plainly: SPR, ligand CDK2 (pT160) : CCNE1.
For assay [3], the target named is T2, active CDK2 (with T160 phosphorylated) (Homo sapiens (Human), UniProt P24941 1-298). The experiment in a line: SPR, ligand CDK2 (pT160), no additive.
The target of assay [4] is T2, active CDK2 (with T160 phosphorylated). Put plainly: SPR, ligand CDK2 (pT160), additive 200 nM Dinaciclib.
Assay [5] shares this target. Put plainly: SPR, ligand CDK2 (pT160), additives 2 mM AMPPNP, 5mM MgCl2.
The target in assay [6] is T1, beta-catenin Armadillo domain, residues …. The experiment in a line: SPR, immobilized β-catenin, MDM2 flowed in the presence of 1 µM Helicon H330 (1.m112).
Assay [7] has the same target. Put plainly: SPR, immobilized β-catenin, MDM2 flowed in the presence of 1 µM Helicon H332 (1.m114).
Assay [8] deals with T3, PPIA, full length (residues 1-165) (human, UniProt P62937 1-165).
T3 construct: also called Cyclophilin A; peptidyl-prolyl cis-trans isomerase A
The experiment in a line: SPR, affinity fit.

Assay [9] addresses T3, PPIA, full length (residues 1-165). The experiment in a line: assay not named on the sheet; printed beside the co-crystal structure.

T3 sequence (P62937 whole entry, the tested form may be a part): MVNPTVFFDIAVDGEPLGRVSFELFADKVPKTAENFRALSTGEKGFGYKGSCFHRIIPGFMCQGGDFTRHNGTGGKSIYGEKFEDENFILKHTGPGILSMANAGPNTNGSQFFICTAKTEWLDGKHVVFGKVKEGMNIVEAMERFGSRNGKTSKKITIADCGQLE

B1: FP49251 (peptide)
stapled peptide: Ac-DPATARCEWAALHCELV-NH2
modifications: bridge 7-14; not fully specified (bridges); printed as Ac-DPATARCEWAALHCELV-NH2
notes: also called H-to-A member of the alanine-scanning series of FP01567
For orientation: Kd means the concentration at which binding is half-saturated. Regarding B1, binding in assay [1] was put at a Kd of 400 nM.

B2: FP49258 (peptide)
stapled peptide: Ac-DPATHRCEWAALHCEAV-NH2
modifications: bridge 7-14; not fully specified (bridges); printed as Ac-DPATHRCEWAALHCEAV-NH2
notes: also called L-to-A (penultimate residue) member of the alanine-scanning series of FP01567
Take B2: the Kd in assay [1] was > 20000 nM.

B3: FP49254 (peptide)
stapled peptide: Ac-DPATHRCEAAALHCELV-NH2
modifications: bridge 7-14; not fully specified (bridges); printed as Ac-DPATHRCEAAALHCELV-NH2
notes: also called W-to-A member of the alanine-scanning series of FP01567
Regarding B3, the Kd in assay [1] was > 20000 nM.

B4: FP49259 (peptide)
stapled peptide: Ac-DPATHRCEWAALHCELA-NH2
modifications: bridge 7-14; not fully specified (bridges)
notes: also called V-to-A (last residue) member of the alanine-scanning series of FP01567
As for B4, the Kd in assay [1] was > 20000 nM.

B5: FP49252 (peptide)
stapled peptide: Ac-DPATHACEWAALHCELV-NH2
modifications: bridge 7-14; not fully specified (bridges); printed as Ac-DPATHACEWAALHCELV-NH2
notes: also called R-to-A member of the alanine-scanning series of FP01567
Regarding B5, binding in [1] was characterised by a dissociation constant (Kd) of 300 nM.

B6: FP49257 (peptide)
stapled peptide: Ac-DPATHRCEWAALHCALV-NH2
modifications: bridge 7-14; not fully specified (bridges); printed as Ac-DPATHRCEWAALHCALV-NH2
notes: also called E-to-A (after the second Cys) member of the alanine-scanning series of FP01567
Turning to B6, the affinity in assay [1], expressed as Kd, was 1000 nM.

B7: FP49253 (peptide)
stapled peptide: Ac-DPATHRCAWAALHCELV-NH2
modifications: bridge 7-14; not fully specified (bridges); printed as Ac-DPATHRCAWAALHCELV-NH2
notes: also called E-to-A member of the alanine-scanning series of FP01567
On to B7, for which binding in assay [1] was put at a Kd of 2700 nM.

B8: FP49255 (peptide)
stapled peptide: Ac-DPATHRCEWAAAHCELV-NH2
modifications: bridge 7-14; not fully specified (bridges); printed as Ac-DPATHRCEWAAAHCELV-NH2
notes: also called L-to-A member of the alanine-scanning series of FP01567
For the molecule B8, the Kd in assay [1] was > 20000 nM.

B9: FP33215 (peptide)
peptide: Ac-WWVCAIAAIECSD-NH2
modifications: bridge 4-11; also: Cys staple linker not named
notes: also called truncated version of FP19711
As for B9, in assay [2], the Kd is 270 nM.
For Ac-DPAWWVCAIAAIECSDV-NH2 (bridge 7-14; not fully specified (bridges), Cluster C51) [FP19711], the Kd in assay [2] turned out to be 1700 nM; in [3], 1700 nM; in assay [4], 2000 nM; in assay [5], 900 nM.

B10: MDM2 p53-binding domain, residues 17-111, C17S (enzyme)
chain: SQIPASEQETLVRPKPLLLKLLKSVGAQKDTYTMKEVLFYLGQYIMTKRLYDEKQQHIVYCSNDLLGDLFGVPSFSVKEHRKIYTMIYRNLVVVN
notes: Form for crystallography and the FP assays
Take B10: the Kd in assay [6] amounted to 254 nM; in assay [7], 1340 nM.
Turning to Ac-DPANQDCHVAAWHCWQR-NH2 (bridge 7-14; not fully specified (bridges), Cluster C53) [FP29092], in [8], the Kd was 3 µM.
For Ac-PDCHIRAYVCH-NH2 (bridge 3-10; not fully specified (bridges), Cluster C54) [FP29103], binding in assay [8] was characterised by a dissociation constant (Kd) of 10 µM.
As to Ac-PECHIEAYWCI-NH2 (bridge 3-10; not fully specified (bridges); printed as Ac-PECHIEA YWCI-NH2, Cluster C54) [FP29102], the Kd in assay [9] is 11 µM.
